Here are results for 3 molecules from publication PMC7983153 (The Biochemical journal, 2018).

As usually defined, the stoichiometry N is a count of units in the complex or per binding partner.

The target of one test is MtTSPS (Medicago truncatula, UniProt G7K2D1). The test can be described thus: X-ray crystallography, […] Å. Conditions: co-crystallization, 10-molar excess of ligand, pH 6.5; polyamine-binding groove.
The target of test [1] is MtTSPS-R37E mutant (Medicago truncatula). The test can be described thus: SEC.
Test [2] has as its target thermospermine synthase from Medicago truncatula (MtTSPS) (Medicago truncatula). The experiment in a line: crystal structure.
Test [3] has the same target. The test can be described thus: SAXS.

Consider `NCCCCNCCCNCCCN` [TSPM, thermospermine], for which, at MtTSPS, the “X-ray crystallography, 1.65 Å” value is “TSPM in the MtTSPS-TSPM complex is bound with aminopropyl group pointing outside the pocket”.
In turn, MtTSPS-R37E mutant (enzyme) registered a stoichiometry N in test [1] of 2.
Consider “thermospermine synthase from Medicago truncatula (MtTSPS) (enzyme)”, for which the stoichiometry N in test [2] and in test [3] was 4 throughout.
